Measured values as given in patent US20170283834A1, “Processes for Producing A Fermentation Product Using A Fermenting Organism” (Novozymes A/S, priority 2014, published 2017).

Legend:
[1] = Glucoamylase activity (AGU) of variant compared to parent; assay type: biochemical; conditions: 37° C., pH 4.3, maltose 100 mM
Method: The Novo Glucoamylase Unit (AGU) is defined as the amount of enzyme, which hydrolyzes 1 micromole maltose per minute under the standard conditions 37° C., pH 4.3, substrate: maltose 23.2 mM, buffer: acetate 0.1 M, reaction time 5 minutes.
An autoanalyzer system may be used. Mutarotase is added to the glucose dehydrogenase reagent so that any alpha-D-glucose present is turned into beta-D-glucose. Glucose dehydrogenase reacts specifically with beta-D-glucose in the reaction mentioned above, forming NADH which is determined using a photometer at 340 nm as a measure of the original glucose concentration.
The glucoamylase activity measures as AGU as described above was checked for the purified enzymes of the wild type Penicillium oxalicum and the variant glucoamylase.
The Glucoamylase Unit (AGU) was defined as the amount of enzyme, which hydrolyzes 1 micromole maltose per minute under the standard conditions (37° C., pH 4.3, substrate: maltose 100 mM, buffer: acetate 0.1 M, reaction time 6 minutes).

[2] = Penicillium oxalicum glucoamylase: heat stability; assay type: biochemical; conditions: for Relative activity (%): Heat stability
Method: (§1) Substrate: 1% soluble starch (Sigma S-9765) in deionized water
(§2) Reaction buffer: 0.1 M Acetate buffer at pH 5.3 Glucose concentration determination kit: Wako glucose assay kit (LabAssay glucose, WAKO, Cat#298-65701).
(§3) 20 microL soluble starch and 50 microL acetate buffer at pH 5.3 were mixed. 30 microL enzyme solution (50 micro g enzyme protein/ml) was added to a final volume of 100 microL followed by incubation at 37° C. for 15 min.
(§4) The glucose concentration was determined by Wako kits.
To assess the heat stability of the Penicillium oxalicum glucoamylase the Reaction condition assay was modifed in that the enzyme solution and acetate buffer was preincubated for 15 min at 20, 30, 40, 50, 60, 70, 75, 80, 85, 90 and 95° C. Following the incubation 20 microL of starch was added to the solution and the assay was performed as described above.

host proteases = experiment: Cleavage during cultivation, SDS-PAGE of culture supernatants; design: species or system Aspergillus niger
Method: Aspergillus transformant of the variant and the wild type Penicillium oxalicum glucoamylase were cultivated in 6-well MT plates containing 4× diluted YP-2% maltose medium supplemented with 10 mM sodium acetate buffer, pH4.5, at 32° C. for 1 week.
The culture supernatants were loaded on SDS-PAGE.

[3] = Penicillium oxalicum glucoamylase: pH optimum; assay type: biochemical; conditions: for Relative activity (%): pH optimum
Method: as §1, §3, §4
pH optimum. To assess the pH optimum of the Penicillium oxalicum glucoamylase the Reaction condition assay described above was performed at pH 2.0, 3.0, 3.5, 4.0, 4.5, 5.0, 6.0 7.0, 8.0, 9.0, 10.0 and 11.0. Instead of using the acetate buffer described in the Reaction condition assay the following buffer was used 100 mM Succinic acid, HEPES, CHES, CAPSO, 1 mM CaCl2, 150 mM KCl, 0.01% Triton X-100, pH adjusted to 2.0, 3.0, 3.5, 4.0, 4.5, 5.0, 6.0 7.0, 8.0, 9.0, 10.0 or 11.0 with HCl or NaOH.

[4] = Penicillium oxalicum glucoamylase: temperature optimum (Reaction condition assay); assay type: biochemical; conditions: for Relative activity (%): Temperature optimum
Method: as §1, §2
To assess the temperature optimum of the Penicillium oxalicum glucoamylase the “Reaction condition”-assay described above was performed at 20, 30, 40, 50, 60, 70, 80, 85, 90 and 95° C.

aorsin = target: T1, aorsin (Aspergillus oryzae, UniProt Q8NK92); experiment: PE001 protease stability, SDS-PAGE after protease treatment; assay type: biochemical
T1 sequence (Q8NK92 216-652): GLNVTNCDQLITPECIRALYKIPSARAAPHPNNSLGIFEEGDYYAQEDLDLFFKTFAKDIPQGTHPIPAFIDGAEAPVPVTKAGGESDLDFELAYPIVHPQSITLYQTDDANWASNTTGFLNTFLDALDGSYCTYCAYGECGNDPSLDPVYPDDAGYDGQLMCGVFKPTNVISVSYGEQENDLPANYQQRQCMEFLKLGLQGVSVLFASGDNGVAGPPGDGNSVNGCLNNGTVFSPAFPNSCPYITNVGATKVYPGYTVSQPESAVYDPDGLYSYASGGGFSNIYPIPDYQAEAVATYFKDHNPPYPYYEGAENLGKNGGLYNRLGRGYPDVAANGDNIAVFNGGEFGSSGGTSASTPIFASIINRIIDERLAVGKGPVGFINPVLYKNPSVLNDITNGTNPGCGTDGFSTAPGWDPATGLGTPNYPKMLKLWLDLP
Method: (§5) 40 μl enzyme solutions (1 mg/ml) in 50 mM sodium acetate buffer, pH 4.5, were mixed with 1/10 volume of 1 mg/ml protease solutions such as aspergillopepsin I described in Biochem J. 1975 April; 147(1):45-53, or the commercially available product from Sigma and aorsin described in Biochemical journal [0264-6021] Ichishima yr: 2003 vol:371 iss:Pt 2 pg:541 and incubated at 4 or 32° C. overnight. As a control experiment, H2O was added to the sample instead of proteases. The samples were loaded on SDS-PAGE to see if the glucoamylases are cleaved by proteases.

aspergillopepsin I = experiment: as above; assay type: biochemical
Method: as §5

[5] = culture supernatant, 32° C., 1 week
[6] = aspergillopepsin I, incubation 32° C. overnight

B1: Penicillium oxalicum glucoamylase: wild type Penicillium oxalicum glucoamylase disclosed in SEQ ID NO: 9 (protein, listed as Penicillium oxalicum)
chain: MRLTLLSGVAGVLCAGQLTAARPDPKGGNLTPFIHKEGERSLQGILDNLGGRGKKTPGTAAGLFIASPNTENPNYYYTWTRDSALTAKCLIDLFEDSRAKFPIDRKYLETGIRDYVSSQAILQSVSNPSGTLKDGSGLGEPKFEIDLNPFSGAWGRPQRDGPALRATAMITYANYLISHGQKSDVSQVMWPIIANDLAYVGQYWNNTGFDLWEEVDGSSFFTIAVQHRALVEGSQLAKKLGKSCDACDSQPPQILCFLQSFWNGKYITSNINTQASRSGIDLDSVLGSIHTFDPEAACDDATFQPCSARALANHKVYVDSFRSIYKINAGLAEGSAANVGRYPEDVYQGGNPWYLATLGASELLYDALYQWDRLGKLEVSETSLSFFKDFDATVKIGSYSRNSKTYKKLTQSIKSYADGFIQLVQQYTPSNGSLAEQYDRNTAAPLSANDLTWSFASFLTATQRRDAVVPPSWGAKSANKVPTTCSASPVVGTYKAPTATFSSKTKCVPAKDIVPITFYLIENTYYGENVFMSGNITALGNWDAKKGFPLTANLYTQDQNLWFASVEFIPAGTPFEYKYYKVEPNGDITWEKGPNRVFVAPTGCPVQPHSNDVWQF
Relative specific activity AGU/mg [1]: 100%
Relative activity (%) ([2]; preincubated 15 min at 20° C.): 91.0%
Relative activity (%) ([2]; preincubated 15 min at 30° C.): 92.9%
Relative activity (%) ([2]; preincubated 15 min at 40° C.): 88.1%
Relative activity (%) ([2]; preincubated 15 min at 50° C.): 100.0%
Relative activity (%) ([2]; preincubated 15 min at 60° C.): 96.9%
Relative activity (%) ([2]; preincubated 15 min at 70° C.): 86.0%
Relative activity (%) ([2]; preincubated 15 min at 80° C.): 34.8%
Relative activity (%) ([2]; preincubated 15 min at 85° C.): 36.0%
Relative activity (%) ([2]; preincubated 15 min at 90° C.): 34.2%
Relative activity (%) ([2]; preincubated 15 min at 95° C.): 34.8%
activity maintained after preincubation ([2]; up to 70° C., preincubation for 15 min): more than 80%
cleavage by host proteases during fermentation (host proteases): cleaved by host proteases during fermentation
cleaved glucoamylase (ca. 60 kDa) (host proteases; [5]): 10%
intact glucoamylase (ca. 70 kDa) (host proteases; [5]): 90%
pH of highest activity ([3]; at the given conditions): 5.0
activity maintained from pH 2 to 7 ([3]; pH 2 to 7): more than 50%
Relative activity (%) ([3]; pH 2.0): 71.4%
Relative activity (%) ([3]; pH 3.0): 78.6%
Relative activity (%) ([3]; pH 3.5): 77.0%
Relative activity (%) ([3]; pH 4.0): 91.2%
Relative activity (%) ([3]; pH 4.5): 84.2%
Relative activity (%) ([3]; pH 5.0): 100.0%
Relative activity (%) ([3]; pH 6.0): 55.5%
Relative activity (%) ([3]; pH 7.0): 66.7%
Relative activity (%) ([3]; pH 8.0): 30.9%
Relative activity (%) ([3]; pH 9.0): 17.8%
Relative activity (%) ([3]; pH 10.0): 15.9%
Relative activity (%) ([3]; pH 11.0): 16.1%
activity maintained at 95° C. ([4]; 95° C.): more than 80%
Relative activity (%) ([4]; 20° C.): 63.6%
Relative activity (%) ([4]; 30° C.): 71.7%
Relative activity (%) ([4]; 40° C.): 86.4%
Relative activity (%) ([4]; 50° C.): 99.4%
Relative activity (%) ([4]; 60° C.): 94.6%
Relative activity (%) ([4]; 70° C.): 100.0%
Relative activity (%) ([4]; 80° C.): 92.9%
Relative activity (%) ([4]; 85° C.): 92.5%
Relative activity (%) ([4]; 90° C.): 82.7%
Relative activity (%) ([4]; 95° C.): 82.8%
cleaved glucoamylase (ca. 60 kDa) (aorsin; incubation 4° C. overnight): 60%
intact glucoamylase (ca. 70 kDa) (aorsin; incubation 4° C. overnight): 40%
cleaved glucoamylase (ca. 60 kDa) (aorsin; incubation 32° C. overnight): 90%
intact glucoamylase (ca. 70 kDa) (aorsin; incubation 32° C. overnight): 10%
intact glucoamylase (ca. 70 kDa) (aspergillopepsin I; aspergillopepsin I, incubation 4° C. overnight): 100%
cleaved glucoamylase (ca. 60 kDa) (aspergillopepsin I; [6]): 10%
intact glucoamylase (ca. 70 kDa) (aspergillopepsin I; [6]): 90%
SDS-PAGE result after protease treatment (aspergillopepsin I; proteases (aspergillopepsin I, aorsin)): degraded by proteases
